# Measurements: paper PMC2615606
# Columns and labels:
# Sp1 (rhSp1) [1] = target: T1, Sp1 (rhSp1) (UniProt P08047 1-785); assay: competition
# Sp1 (rhSp1) [2] = target: T1, Sp1 (rhSp1); assay: EMSA
# T1 sequence (P08047 whole entry): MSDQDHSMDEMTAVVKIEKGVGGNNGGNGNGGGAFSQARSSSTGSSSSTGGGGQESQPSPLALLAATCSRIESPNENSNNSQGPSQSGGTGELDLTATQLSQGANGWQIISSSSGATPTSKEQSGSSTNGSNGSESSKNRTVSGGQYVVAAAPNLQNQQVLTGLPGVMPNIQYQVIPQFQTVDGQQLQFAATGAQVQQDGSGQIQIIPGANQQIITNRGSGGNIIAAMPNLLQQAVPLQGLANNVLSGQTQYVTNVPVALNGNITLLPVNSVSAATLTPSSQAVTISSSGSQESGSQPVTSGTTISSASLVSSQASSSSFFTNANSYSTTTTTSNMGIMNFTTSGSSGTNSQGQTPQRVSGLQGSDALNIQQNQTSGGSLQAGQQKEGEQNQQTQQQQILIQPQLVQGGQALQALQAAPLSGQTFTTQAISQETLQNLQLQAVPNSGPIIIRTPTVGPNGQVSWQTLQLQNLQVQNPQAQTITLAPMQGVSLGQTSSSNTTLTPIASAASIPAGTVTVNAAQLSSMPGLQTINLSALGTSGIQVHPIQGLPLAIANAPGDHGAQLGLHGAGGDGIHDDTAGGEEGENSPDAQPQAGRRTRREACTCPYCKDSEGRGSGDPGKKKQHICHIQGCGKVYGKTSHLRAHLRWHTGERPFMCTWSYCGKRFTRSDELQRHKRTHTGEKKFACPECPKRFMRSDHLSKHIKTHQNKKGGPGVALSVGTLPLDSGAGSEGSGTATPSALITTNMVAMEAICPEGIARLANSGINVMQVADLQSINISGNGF
Binder,binding result (Sp1 (rhSp1) [1]),binding result (Sp1 (rhSp1) [2])
DUT Sp1Δ (dsDNA) DNA 1: GTTCGGTGGGTGGTTCGGGGCTGGCTTG DNA 2: CAAGCCAGCCCCGAACCACCCACCGAAC,no binding,
DUT Sp1 (-64 to -91) (dsDNA) DNA 1: GGGCGGTGGGTGGGGCGGGGCTGGCGGG DNA 2: CCCGCCAGCCCCGCCCCACCCACCGCCC,,binds
